Assay results published in patent US20230395193A1 (priority 2020, published 2023).

B1: M-Q68DH5 (protein, UniProt Q68DH5 1-695, looked up)
G-protein coupled …: MSGAALGLEIVFVFFLALFLLHRYGDFKKQHRLVIIGTLLAWYLCFLIVFILPLDVSTTIYNRCKHAAANSSPPENSNITGLYATANPVPSQHPCFKPWSYIPDGIMPIFWRVVYWTSQFLTWILLPFMQSYARSGGFSITGKIKTALIENAIYYGTYLLIFGAFLIYVAVNPHLHLEWNQLQTIGIAAANTWGLFLLVLLLGYGLVEIPRSYWNGAKRGYLLMKTYFKAAKLMTEKADAEENLEDAMEEVRKVNESIKYNHPLRKCVDTILKKCPTEYQEKMGRNMDDYEDFDEKHSIYPSEKSLVKLHKQVIYSVQRHRRTQVQWQILLEQAFYLEDVAKNETSATHQFVHTFQSPEPENRFIQYFYNPTFEWYWECLLRPWFYKILAVVLSIFSVIVVWSECTFFSTTPVLSLFAVFIQLAEKTYNYIYIEIACFLSIFFLSICVYSTVFRIRVFNYYYLASHHQTDAYSLLFSGMLFCRLTPPLCLNFLGLTHMDSSISHKNTQPTAYTSIMGSMKVLSFIADGFYIYYPMLVVILCIATYFSLGTRCLNLLGFQQFMGDDDMTSDLVNEGKELIRKEKRKRQRQEEGENRRREWKERYGHNREDSTRNRNIHTDPKESNFSDVNTNRSAFKYTRANNRTERDRIELLQDAEPLDFNAETFTDDPLESESGRYQPGGRYLSMSRSDIFNDV
modifications: interaction partner of SARS-CoV-2 M
B2: M-Q5BJH7 (protein, UniProt Q5BJH7 1-314, looked up)
Protein YIF1B: MHPAGLAAAAAGTPRLRKWPSKRRIPVSQPGMADPHQLFDDTSSAQSRGYGAQRAPGGLSYPAASPTPHAAFLADPVSNMAMAYGSSLAAQGKELVDKNIDRFIPITKLKYYFAVDTMYVGRKLGLLFFPYLHQDWEVQYQQDTPVAPRFDVNAPDLYIPAMAFITYVLVAGLALGTQDRFSPDLLGLQASSALAWLTLEVLAILLSLYLVTVNTDLTTIDLVAFLGYKYVGMIGGVLMGLLFGKIGYYLVLGWCCVAIFVFMIRTLRLKILADAAAEGVPVRGARNQLRMYLTMAVAAAQPMLMYWLTFHLVR
B3: M-Q5JRX3 (protein, UniProt Q5JRX3 29-1037, looked up)
Presequence protease, …: NSNRACERALQYKLGDKIHGFTVNQVTSVPELFLTAVKLTHDDTGARYLHLAREDTNNLFSVQFRTTPMDSTGVPHILEHTVLCGSQKYPCRDPFFKMLNRSLSTFMNAFTASDYTLYPFSTQNPKDFQNLLSVYLDATFFPCLRELDFWQEGWRLEHENPSDPQTPLVFKGVVFNEMKGAFTDNERIFSQHLQNRLLPDHTYSVVSGGDPLCIPELTWEQLKQFHATHYHPSNARFFTYGNFPLEQHLKQIHEEALSKFQKIEPSTVVPAQTPWDKPREFQITCGPDSFATDPSKQTTISVSFLLPDITDTFEAFTLSLLSSLLTSGPNSPFYKALIESGLGTDFSPDVGYNGYTREAYFSVGLQGIAEKDIETVRSLIDRTIDEVVEKGFEDDRIEALLHKIEIQMKHQSTSFGLMLTSYIASCWNHDGDPVELLKLGNQLAKFRQCLQENPKFLQEKVKQYFKNNQHKLTLSMRPDDKYHEKQAQVEATKLKQKVEALSPGDRQQIYEKGLELRSQQSKPQDASCLPALKVSDIEPTIPVTELDVVLTAGDIPVQYCAQPTNGMVYFRAFSSLNTLPEELRPYVPLFCSVLTKLGCGLLDYREQAQQIELKTGGMSASPHVLPDDSHMDTYEQGVLFSSLCLDRNLPDMMQLWSEIFNNPCFEEEEHFKVLVKMTAQELANGIPDSGHLYASIRAGRTLTPAGDLQETFSGMDQVRLMKRIAEMTDIKPILRKLPRIKKHLLNGDNMRCSVNATPQQMPQTEKAVEDFLRSIGRSKKERRPVRPHTVEKPVPSSSGGDAHVPHGSQVIRKLVMEPTFKPWQMKTHFLMPFPVNYVGECIRTVPYTDPDHASLKILARLMTAKFLHTEIREKGGAYGGGAKLSHNGIFTLYSYRDPNTIETLQSFGKAVDWAKSGKFTQQDIDEAKLSVFSTVDAPVAPSDKGMDHFLYGLSDEMKQAHREQLFAVSHDKLLAVSDRYLGTGKSTHGLAILGPENPKIAKDPSWIIQ
modifications: interactor of viral M protein
B4: M-Q4KMQ2 (protein, UniProt Q4KMQ2 1-910, looked up)
Anoctamin-6: MKKMSRNVLLQMEEEEDDDDGDIVLENLGQTIVPDLGSLESQHDFRTPEFEEFNGKPDSLFFNDGQRRIDFVLVYEDESRKETNKKGTNEKQRRKRQAYESNLICHGLQLEATRSVLDDKLVFVKVHAPWEVLCTYAEIMHIKLPLKPNDLKNRSSAFGTLNWFTKVLSVDESIIKPEQEFFTAPFEKNRMNDFYIVDRDAFFNPATRSRIVYFILSRVKYQVINNVSKFGINRLVNSGIYKAAFPLHDCKFRRQSEDPSCPNERYLLYREWAHPRSIYKKQPLDLIRKYYGEKIGIYFAWLGYYTQMLLLAAVVGVACFLYGYLNQDNCTWSKEVCHPDIGGKIIMCPQCDRLCPFWKLNITCESSKKLCIFDSFGTLVFAVFMGVWVTLFLEFWKRRQAELEYEWDTVELQQEEQARPEYEARCTHVVINEITQEEERIPFTAWGKCIRITLCASAVFFWILLIIASVIGIIVYRLSVFIVFSAKLPKNINGTDPIQKYLTPQTATSITASIISFIIIMILNTIYEKVAIMITNFELPRTQTDYENSLTMKMFLFQFVNYYSSCFYIAFFKGKFVGYPGDPVYWLGKYRNEECDPGGCLLELTTQLTIIMGGKAIWNNIQEVLLPWIMNLIGRFHRVSGSEKITPRWEQDYHLQPMGKLGLFYEYLEMIIQFGFVTLFVASFPLAPLLALVNNILEIRVDAWKLTTQFRRLVPEKAQDIGAWQPIMQGIAILAVVTNAMIIAFTSDMIPRLVYYWSFSVPPYGDHTSYTMEGYINNTLSIFKVADFKNKSKGNPYSDLGNHTTCRYRDFRYPPGHPQEYKHNIYYWHVIAAKLAFIIVMEHVIYSVKFFISYAIPDVSKRTKSKIQREKYLTQKLLHENHLKDMTKNMGVIAERMIEAVDNNLRPKSE
B5: M-Q6PJG6 (protein, UniProt Q6PJG6 1-821, looked up)
Integrator complex assembly …: MDPECAQLLPALCAVLVDPRQPVADDTCLEKLLDWFKTVTEGESSVVLLQEHPCLVELLSHVLKVQDLSSGVLSFSLRLAGTFAAQENCFQYLQQGELLPGLFGEPGPLGRATWAVPTVRSGWIQGLRSLAQHPSALRFLADHGAVDTIFSLQGDSSLFVASAASQLLVHVLALSMRGGAEGQPCLPGGDWPACAQKIMDHVEESLCSAATPKVTQALNVLTTTFGRCQSPWTEALWVRLSPRVACLLERDPIPAAHSFVDLLLCVARSPVFSSSDGSLWETVARALSCLGPTHMGPLALGILKLEHCPQALRTQAFQVLLQPLACVLKATVQAPGPPGLLDGTADDATTVDTLLASKSSCAGLLCRTLAHLEELQPLPQRPSPWPQASLLGATVTVLRLCDGSAAPASSVGGHLCGTLAGCVRVQRAALDFLGTLSQGTGPQELVTQALAVLLECLESPGSSPTVLKKAFQATLRWLLSSPKTPGCSDLGPLIPQFLRELFPVLQKRLCHPCWEVRDSALEFLTQLSRHWGGQADFRCALLASEVPQLALQLLQDPESYVRASAVTAMGQLSSQGLHAPTSPEHAEARQSLFLELLHILSVDSEGFPRRAVMQVFTEWLRDGHADAAQDTEQFVATVLQAASRDLDWEVRAQGLELALVFLGQTLGPPRTHCPYAVALPEVAPAQPLTEALRALCHVGLFDFAFCALFDCDRPVAQKSCDLLLFLRDKIASYSSLREARGSPNTASAEATLPRWRAGEQAQPPGDQEPEAVLAMLRSLDLEGLRSTLAESSDHVEKSPQSLLQDMLATGGFLQGDEADCY
B6: M-Q6AI08 (protein, UniProt Q6AI08 1-1181, looked up)
HEAT repeat-containing …: MAAVQVVGSWPSVQPREAPREAIPERGNGFRLLSARLCALRPDDSSSARTEIHLLFDQLISENYSEGSGVAPEDVSALLVQACRLVPLNQNHLVSKVSQLIHHLLNRLQVIVDEQHLDFLLAYTISAIHQCSSWTHREILQALAALVYCNGSKCQKYLPELLGNTGLLMKLSDLAQSDPEVRRAAVHCMANLCLSVPGQPYLEEPYQNVCFQAFLTILQSPKSSDMDDITFCMLLQNALKGIQSLLNGGRMKLTQTDELGALLAVLKKFMFHGLPGLNIEMPTVLYPTPLPQYDGRTPIKPQQSESSASRPTLNKKKKSKVKPKKIQQGEEEEKESSGEIEAAPVTGTGRVNLHEGNTWCPSSLGVQSLPLDGSGAAEKDGVSSSFSSSSWKRVSSSESDFSDAEGGMQSKMRSYQAKVRQGALVCFLSTIKSIEKKVLYGYWSAFIPDTPELGSPQSVSLMTLTLKDPSPKTRACALQVLSAILEGSKQFLSVAEDTSDHRRAFTPFSVMIACSIRELHRCLLLALVAESSSQTVTQIIKCLANLVSNAPYDRLKLSLLTKVWNQIKPYIRHKDVNVRVSSLTLLGAIVSTHAPLPEVQLLLQQPCSSGLGNSNSATPHLSPPDWWKKAPAGPSLEETSVSSPKGSSEPCWLIRLCISIVVLPKEDSCSGSDAGSAAGSTYEPSPMRLEALQVLTLLARGYFSMTQAYLMELGEVICKCMGEADPSIQLHGAKLLEELGTGLIQQYKPDSTAAPDQRAPVFLVVMFWTMMLNGPLPRALQNSEHPTLQASACDALSSILPEAFSNLPNDRQMLCITVLLGLNDSKNRLVKAATSRALGVYVLFPCLRQDVIFVADAANAILMSLEDKSLNVRAKAAWSLGNLTDTLIVNMETPDPSFQEEFSGLLLLKMLRSAIEASKDKDKVKSNAVRALGNLLHFLQPSHIEKPTFAEIIEESIQALISTVLTEAAMKVRWNACYAMGNVFKNPALPLGTAPWTSQAYNALTSVVTSCKNFKVRIRSAAALSVPGKREQYGSVDQYARIWNALVTALQKSEDTIDFLEFKYCVSLRTQICQALIHLLSLASASDLPCMKETLELSGNMVQSYILQFLKSGAEGDDTGAPHSPQERDQMVRMALKHMGSIQAPTGDTARRAIMGFLEEILAVCFDSSGSQGALPGLTNQ
modifications: interaction partner of SARS-CoV-2 M

Test system: SARS-CoV-1, MERS-CoV and SARS-CoV-2 proteins in HEK293T cells
Set-up: species or system human

| Molecule | MIST_MERS | MIST_SARS1 | MIST_SARS2 | Saint_MERS | Saint_SARS1 | Saint_SARS2 |
| --- | --- | --- | --- | --- | --- | --- |
| B1 | 0.9869 | 0.6855 | 0.2449 | 0.95 | 0 | 0 |
| B2 | 0.3712 | 0.9893 | 0.5979 | 0 | 0.97 | 1 |
| B3 | 0 | 0.001111 | 0.9523 | 0 | 0 | 1 |
| B4 | 0 | 0.864 | 0.9939 | 0 | 0.32 | 1 |
| B5 | 0 | 0.9911 | 0 | 0 | 1 | 0 |
| B6 | 0 | 0.8284 | 0 | 0 | 0.97 | 0 |
